From patent publication US8821862B2, “Soluble β-N-acetylglucosaminidase based antibiofilm compositions and uses thereof” (Kane Biotech Inc., priority 2002, dated 2014) come the findings set out here.

The test system of data set [1] is S. epidermidis. Description: In vitro microplate growth and biofilm formation assay (crystal violet). The format is cell-based, Staphylococcus epidermidis. As to conditions: DispersinB at different concentrations, TSB, 37° C., 24 hours. The procedure:
An overnight culture of S. epidermidis in Tryptic Soy Broth (TSB) was used as inoculum. Bacteria were grown in TSB on a 96-well microtiterplate in the absence and presence of each compound (DispersinB™ or TCSN) at different concentrations separately and together (DispersinB™+TCSN). Concentrations of DispersinB™ included 25 ng/ml, 50 ng/ml, and 100 ng/ml. Concentrations of TCSN included 25 μg/ml, 50 μg/ml, and 100 μg/ml. The plate was incubated at 37° C. for 24 hours. The growth and biofilm was measured as explained in Example 1.
The experiment was performed as explained in Example 1.
An in vitro microtiter assay was performed to determine the effect of DispersinB™ wound gel on the growth and biofilm formation of Staphylococcus epidermidis. S. epidermidis biofilm was grown in tryptic soy broth (TSB). S. epidermidis was grown in 96-well microtiter plate in the absence and presence of DispersinB™ wound gel at different concentrations. The plate was incubated at 37° C. for 24 hours.
In vitro microplate assay was performed to determine the synergistic effect of DispersinB™ and triclosan (an antimicrobial agent) on the growth and biofilm formation of S. epidermidis. Overnight culture of S. epidermidis in Tryptic Soy Broth (TSB) was used as inoculum. […]

Data set [2] has as its system S. aureus. Kind of data set: In vitro microplate biofilm formation assay (crystal violet). The format is cell-based, Staphylococcus aureus. As to conditions: DispersinB at different concentrations, TSB, 37° C., 24 hours.
Description: An in vitro microplate assay was performed to determine the effect of DispersinB™ on the growth and biofilm formation of E. coli, S. epidermidis, and S. aureus. E. coli biofilm was grown in colony forming antigen (CFA) medium. […] S. epidermidis and S. aureus biofilm was grown in tryptic soy broth (TSB). Bacteria were separately grown in 96-well microtiterplate in the absence and presence of DispersinB™ at different concentrations. The E. coli plate was incubated at 26° C. for 24 hours. The S. epidermidis and S. aureus biofilm plates were incubated at 37° C. for 24 hours. Growth of planktonic cells based on the absorbance at 600 nm was determined using Labsystems Multiskan Ascent microplate reader. Biofilm was measured by discarding the medium; rinsing the wells with water (three times), and staining bound cells with crystal violet. The dye was solubilized with 33% acetic acid, and absorbance at 630 nm was determined using a microtiter plate reader.
Data set [3] concerns S. epidermidis biofilm. Description: Dispersal of S. epidermidis biofilm aggregates in a tube. As to conditions: scraped biofilm cell aggregates in tube treated with DispersinB. The format is cell-based. An excerpt:
The biofilm growth from the surface was scraped from the bottom of the tube and transferred to another tube (FIG. 2). Under these condition cells formed a sticky aggregate that rapidly settle to the bottom of the tube.

The subject of data set [4] is biofilm-embedded S. epidermidis. Kind of data set: In vitro biofilm killing assay after DispersinB pre-treatment. The data set is classed as cell-based, Staphylococcus epidermidis. As to conditions: DispersinB alone, 20 μg/ml, 30 min. The procedure:
An in vitro biofilm assay was performed to determine the effect of DispersinB™ pre-treatment on the susceptibility of S. epidermidis to SDS. S. epidermidis biofilm grown in tubes were pretreated with PBS or DispersinB™ (20 μg/ml) for 30 min, and then treated with SDS (0.2 mg/ml) for 5 min at 37° C. […] However, SDS caused a 1.5 log unit decrease in the number of CFUs in tubes pretreated with […] biofilm embedded cells more susceptible to SDS.
An in vitro biofilm assay was performed to determine the effect of DispersinB™ pre-treatment on the susceptibility of biofilm-embedded S. epidermidis to CHX. S. epidermidis biofilm grown in tubes were pretreated with PBS or DispersinB™ (20 μg/ml) for 30 min, and then treated with CHX (0.2 μg/ml) for 5 min at 37° C. […] However, CHX caused a 1.6 log decrease of CFU in tubes pretreated with DispersinB™. DispersinB™ pretreatment made biofilm-embedded cells more susceptible to CHX.
An in vitro biofilm assay was performed to determine the effect of DispersinB™ pre-treatment on the susceptibility of S. epidermidis to BKC. S. epidermidis biofilm grown in tubes were pretreated with PBS or DispersinB™ (20 μg/ml) for 30 min, and then treated with BKC (0.4 μg/ml) for 60 min at 37° C. […] However, BKC caused a 2.2 log decrease in CFU in tubes pretreated with DispersinB™. DispersinB™ pre-treatment made biofilm-embedded cells more susceptible to BKC.
An in vitro biofilm assay was performed to determine the effect of DispersinB™ pre-treatment on susceptibility of S. epidermidis to silver nanopowder (SNP). S. epidermidis biofilm grown in tubes were pretreated with PBS or DispersinB™ (20 μg/ml) for 30 min, and then treated with SNP (0.03125 μg/ml) for 60 min at 37° C. […] However, SNP caused a 1.5 log decrease in CFU in tubes pretreated with DispersinB™. DispersinB™ pre-treatment made biofilm embedded cells more susceptible to SNP treatment.

Data set [5] relates to A. actinomycetemcomitans CU1000 biofilms. Kind of data set: Biofilm killing assay. The format is cell-based. As to conditions: DispersinB alone, 20 μg/mL. The procedure: Biofilm Killing Assay. […] Tubes were vortexed for 10 s, and 20 μL aliquots of the detached biofilms were transferred to the wells of a flat-bottomed 96-well microtiter plate containing 180 μL of fresh broth. Five serial dilutions (20 μL into 180 μL) were performed directly into adjacent wells. Plates were incubated for 48 h and then rinsed and stained with crystal violet as described above. Wells containing 30-300 biofilm colonies were photographed under a dissecting microscope and counted. In some assays, biofilms were pre-treated with 1 mL of DispersinB™ (20 μg/mL in PBS) for 5 min prior to the SDS treatment. In these assays, a 100 μL quantity of SDS in PBS (at 10 times the test concentration) was added directly to the DispersinB™-treated cell suspension and mixed. After 5 min, tubes were vortexed briefly, and 20-μL aliquots of culture were enumerated as described above. Killing assays were performed in duplicate tubes on at least 5 separate occasions, with similar results.

The nature of data set [6]: DispersinB enzyme activity. The format is biochemical. As to conditions: recombinant protein purified from an overexpressing strain of E. coli. The procedure:
Reagents. Recombinant dispersinB protein was purified from an overexpressing strain of E. coli as previously described (Kaplan et al., J. Bacteriol. 2003, 185: 4693-4698). […] Sodium dodecyl sulfate (SDS) was purchased from Fluka (St. Gallen, Switzerland). Phosphate-buffered saline (PBS; 138 mM NaCl, 10 mM phosphate, 2.7 mM KCl, pH 7.4) was purchased from Sigma Chemical Company (St. Louis, Mo., USA).

Data set [7] can be described thus: Shelf life of purified DispersinB. The format is physicochemical.

B1: DispersinB™: 381 amino acid soluble β-N-acetylglucosaminidase encoded by dspB of A. actinomycetemcomitans; mature polypeptide SEQ ID NO:11 (protein)
chain: NCCVKGNSIYPQKTSTKQTGLMLDIARHFYSPEVIKSFIDTISLSGGNFLHLHFSDHENYAIESHLLNQRAENAVQGKDGIYINPYTGKPFLSYRQLDDIKAYAKAKGIELIPELDSPNHMTAIFKLVQKDRGVKYLQGLKSRQVDDEIDITNADSITFMQSLMSEVIDIFGDTSQHFHIGGDEFGYSVESNHEFITYANKLSYFLEKKGLKTRMWNDGLIKNTFEQINPNIEITYWSYDGDTQDKNEAAERRDMRVSLPELLAKGFTVLNYNSYYLYIVPKASPTFSQDAAFAAKDVIKNWDLGVWDGRNTKNRVQNTHEIAGAALSIWGEDAKALKDETIQKNTKSLLEAVIHKTNGDE
modifications: Actinobacillus actinomycetemcomitans
In the case of B1, the biofilm formation result in data set [1] and in data set [2] was “appreciable effect” in each case. Further, in data set [3], the “dispersal of S. epidermidis biofilm” value was “detaches the biofilm”. Also, the “killing of biofilm-embedded S. epidermidis” value in data set [4] is “did not significantly kill”. In addition, the “killing of A. actinomycetemcomitans biofilms” value in data set [5] (5 min or 30 min) is “did not significantly kill”. The “reduction in the number of CFU/tube” value in data set [5] (30 min, versus mock-treated controls) is “little or no reduction”. Also, the specific activity in data set [6] was ~10^3 units per mg of protein. The shelf life entry in data set [7] is on record as “approximately 12 months”.
